A protein production outcome set (Wang et al. 2014)

Experiment: label from the status in PepcDB records

| Sequence | protein production |
| --- | --- |
| MNIRPSQIKHKQRIASFITHAVVVVMGVLIVSVLFQSYQISSRLMAQEGQRTSVQTSSLIQSLFDFRLAALRIHQDSTAKNASLINALVSRDSSRLDEFFSSVDELELSNAPDLRFISSHDNILWDDGNASFYGIAQQELNKLIRRVAISGNWHLVQTPSEGKSVHILMRRSSLIEAGTGQVVGYLYVGIVLNDNFALLENIRSGSNSENLVLAVDTTPLVSTLKGNEPYSLDYVVHSAKDAMRDSFIVGQTFLEVESVPTYLCVYSIQTNQNVLTLRDNFYFWMAFALISMIGVSIASRWWLQKRIQREIETLMNYTHKLMDLDTKSEFIGSKIYEFDYFGRTLEQSFRRLANKEKQFEDLFNFALSPTMLWNTSGRLIRMNPSAQIQFLREDAQNHFLFEILERQLLPTITNAAQGNNPSDVTTEVDGRVYRWNLSPIMVEGQIISIITQGQDITTIAEAEKQSQAARREAEESARVRAEFLAKMSHELRTPLNGVLGVSQLLKRTPLNDEQREHVAVLCSSGEHLLAVLNDILDFSRLEQGKFRIQKNEFRLKELVCAIDRIYRPLCNEKGLELVVNSNITTAAIVRSDQIRINQILFNLLNNAIKFTHQGSIRVELQLIEGDPLAQLVIQVVDTGIGIREQDLTVIFEPFMQAESTTTREYGGSGLGLTIVHSLVEMLSGQLHVSSEYGIGTRFEIQLPIELVEKPDAPQQLLPAPDPQPLFDKTLRVLLVEDNHTNAFIAQAFCRKYGLDVSWVTDGLQAIEELKIHDYDLVLMDNQLPYLDGVETTRTIKKVLHLPVVVYACTADGLEETRQAFFHAGAEYVLVKPLKEQTLHKALEHFKHHHGQKNAGLN | failed |
| MNYAFVVQARLGSTRLPGKILKPFYGNQSILDLMVHKLSAISNIPVIIATTNSVINEPIEKKALALGVKCFRGEENDVLKRFIDVAEYFDIQGIFRICSDNPFLDVHAARQLVEIAMKSCNDYISFDIDGTPSIKTHFGFWGEFVTLDALKRVIGFTDDLLYREHVTNYIYSHPELFNIQWISGSPVVSKHHNIRLTIDTLEDFSVAQRIYRDLQEKRVEISIEVIVDYVRRHAEYIQLMKQQIKKNSKLEHHHHHH | not failed |
| QLREIVEKVSRVDDVHLALDILVKETCAALRTECCTIYLANEEMQRLELMATQGLIFEGDSIHINFNEGLVGLVKRSAEPLNLAEASKHPEFKFFPQLGEQVYHSFLATPIIHRKQVLGVLVIQQKTPRLFSEMEESFLVTLSAQLAVIIAHAQSLGHWQ | failed |
| MIGGSLDAFIGSVHRMAAALDGTIELVCGAFSSNAARSIQTGEALHLPKERIYASYEEMIVQEAQLPADVRMQFVSIVTPNHLHAQPALLALKHGFHVLCEKPLAFSVAEAEQLGIQVKETGLLFGLTHTYTAYPMVKEARDLIAKGKLGTIRKIIVEYPQGWLSAPIESDGQKQAGWRTDPAQAGLSCCVGDIGTHAENIAEYITGLKITELSADVSSVVAGRKLDDDANILLRFDNGAKGVLIASQIANGEENELKIRVYGEHAGLEWLQSEPNTLIVKQNDQPTQLRRAGANHSYLSEHARLHCRIPAGHPEGYIEAMANIYRNFSKAVHSFEDQITHNPLLDYPTIEDGIRGMKFIETVIISGKENATWKQLLEHHHHHH | not failed |
| MPFKEYDHDFIDKNKKASSSVRLALLLSVLIIIFNLLFFKHRDFQEQLHNNPGSYTDLIALVFLFFILSCTSKISLNHTSALSIRLGLHVWICSATFDFMDEFIYQPKLVGYYVEDMLRIIGMFGVGFGVYTLIQQINNKYVEARIQSFSDELTQLPNRRFFINELKKLEAKTPYLFIIDIDNFKVINDKYGHTKGDEILSKFGHILSRFDNSEVVATRIGGEEFAIILYAGTQDRAEKLAREVLKNANKIIIKNMHHLSVSIGAGKKQPQEPTEHFMKRVDVALYQAKNTGKGKVEWALEPKEKTQ | failed |
| MGHHHHHHSHPQSAAKPGLHFIDQHRAALIARVTNVEWLLDALYGKVLTDEQYQAVRAEPTNPSKMRKLFSFTPAWNWTCKDLLLQALRESQSYLVEDLERS | failed |
| MIMINKTKRLMVSRQVKIPRKTYFWGPTPNPGMHPKDQSVTLLSIIRDYLKLSDKEREAARILANGLVKVDGKTVREKKFAVGFMDVIEINGESYRVVYNDQGALVLMKETKERASMKLLKVRSKVIAPGNRIQLGTHDGRTFITDDKSKKVGDVWAVSVPDMKISEIIKMQPGNKAYITAGSHVNQTGTISKIEAKEGSSANLVHFQEGFSTIKDHVFMIGSSKFSFVLSPEEVIPLEHHHHHH | not failed |
| MSHYQCAVCSSIDANPNSLAVNYQCLADSSVVGEFHVLPRHQGYTDLLHGGIASSLLDGAMTHCLLFRDIQALTAQLDVRYHAPIELDEHVTITAHCEGERRGIYQLVAQLLVNNEVRVTAKGKFIRPKLEHHHHHH | not failed |
| MPGEEVSQAKQQLKLIIDAYLSESDVDNVLAACDFADLAHSGITRKSGEPYILHPIAVSCILAHMRLDAETLMAALLHDVIEDTEHTKDEIGERFGEVVADLVDGVTKLTHSSDKQYNKAASFRKILQATLQDPRVIIIKLADRYHNMTTLDALRPDKRARIAQETFDIFVPMARIVGMNEMGDNLELLCYQNLDLDMYNNVQEALLETKPRRCEYQTKWEHHLGELLTTYHIHGRVKKKNNNIELLRHFVKNEIDLQELTHSHAFEIILNSISDCDRLVDALKENFQILHFEDHIRRPLPGGNQSIMMKLKGEQTTLSLTIQTELMRKAARFGVVLGENAPQACRSAIQASMQNLTTLIDGECAKTTFNDLLDYLHQEKIWVYTPHGHLHELPQGATVIDFAYSASLFLGNHAVGAKIDGEIRPLSTPLVSGQVIDVITDVLATPNPDWLSFINTQKARRAIQNMLRDQDIEEQLLVGQQALNRALKLFNRSMHDLSESDWLNVLQWRHVENKEALFEQIAVGDLLPQLVANHLYAQDTSDKTGHAPDRLIQGTEGVDVKYAHCCNPILGDPIQGHLSRRGLIVHRARCHNLLHEQHLHPENIMPLQWTSDDLDDVSFTAYLCIDMPLDGEQISELIYLCRKSHTGVEMVQPHGDHTYVNIVVNNRKVVAQIIRDLRMLFGFPRVSRLFTPAAVTESVKIKVS | failed |
| MVDSHVHTPLCGHAEGHPEAYLEEARAKGLKGVVFTDHSPMPPWYDPESRMRLEALPFYLLALERVRERAQDLYVGIGLEADFHPGTEGFVAQLLRRYPFDYVIGSVHYLGAWPLDHPDHQEEYAWRDLKEVFRAYFQEVEKAARSGLFHAIGHLDLPKKFGHRLPEEALLELAEPALRAVAEAGLFLDVNTAGLRRPAKEVYPAPALLRRARELGIGLVLGSDAHRPEEVGFAFPEVQALLAGLGFREAYYFVEGSPVAYPLSRASLEHHHHHH | not failed |
| MQTINTHPVQPLKLDSEVQRQMNFQFLTAMKAFFTLLTTEDNIDAVDELSSILIHSRAFELAAESMQTDPEVAHLIKERYYAPVHDVEQLLQYPADSLGYLYASTLKESGFERIDPEIIVNSDTAYIEHRWQQTHDIWHLVTGFSASGIDEIGLQAFYLAQFRLPLASMLIANALMSATLLAPEDLPQLLQTIERGWTMGLQAKPLFAQKWEEAWEKPLSQWRDELNIQAFS | failed |
| MSDKLLIMFHGVGSNGVDLLPIAQYWQRQIDGLDIAYPNAPFPFMHSHEVFEWFSLTGITPQNRYERIVDAREYFDQTILRTLQEHKFQGDLSQLIFCGFSQGTIMCLDAIVSGRWSVAGCIGFSGRLASPVESDVRTTKISLMHGEADAVIAVEEGREAYHTLNEAGFDVQLETYTGLGHSVNELELKKGLEFLQAL | failed |
| MSNNSKISWTTTTWNVTAGCDPISDGCKNCYARMMAERLKAMGQAKYQNGFIPTIHSECLNEPFGWKGNKLVFVVSMGDLFHKDIPFDFIDKVIEVITKCPQHTFQILTKRAERMYEYFSTHAIPENVWLGVTVENQKVKGRIDYLKKLDAPVRFLSCEPLLEDLGTLDLSDIDWVIVGGESGNRARKVEKDWILNIKSQCDASTSTAFFFKQWGTWGADGVKRSAKENGCLLDGKEYHAYPTPRKIKPLEHHHHHH | not failed |
| MDPSLHARPHPRRRLRCALLALACGTGAAHAATPPPYLQTQRSFEQRAADLVSRMTLEEKAAQMQNAAPAIPRLGVPAYDWWNEALHGVARAGGATVFPQAIGMAATFDLPLMHEVATAISDEARAKHHRFLRQHQHARYQGLTFWSPNINIFRDPRWGRGQETYGEDPFLTARMGVTFVQGLQGEGSDAPKNAQGERYRKLDATAKHFAVHSGPEADRHHFDARPSQRDLYETYLPAFEALVKDGKVDAVMGAYNRVYGESASASKFLLQDVLRQQWGFKGYVVSDCWAIVDVWKHHKIVATREQAAALAVTHGTELECGEEYSTLPAAVHQGLIDEAQIDTALQTLMTARMRLGMFDPPGQLPWSKIPASVNQSPAHDALARRTARESLVLLKNDGLLPLSRATLKRIAVIGPTADDTMALLGNYYGTPAAPVTVLQGIRAAAPNAQVLYARGADLVEGRNDPAATPLIEPHYLRPSANSPERGLRGEYFRNRDLSGKPALVRVDAQIGFTWDRGSPTDNLLARGEAGPSEAVPADNFSIRWSGQLVPPTTGTYHLEAAADDGVRLYLDGKPVIDRWSTSDRLHADGVDVQLQAGRSYDLRLDYFEGERDAAVRLAWRQPGAKPPLQEALDVARSADVVVFVGGLTGDVEGEEMKVSYPGFAGGDRTDLRLPKPQRELLEALQATGKPVVAVLTAGSALAVDWAQQHVPAILLAWYPGQRGGTAVADTLFGDANPGGRLPVTFYKESETLPAFDDYAMHGRTYRYFGGTPLYPFGHGLSYTQFAYSDLRLDRSTLTADGALTATVAVKNTGQRAGDEVVQLYLHPLKPQRERAGKELRGFQRLALQPGQQRELRFTINAKDALRIYDAQRKAYTVDPGAYEVQIGASSADIRARQRFTVTDK | failed |
| MSLLTLAFNPQPRAKTYCSGPILRVSGVWAVKILYIVLDGAADSPTSPRKTLEEASKPNIDSLGSHAVCGMVYTVKPGVAPQSDYATLSLLGYNPDEYYPGRGPLEAFGAGIEMRRGDIALRANFATVDPGTLRIIDRRVGRSLTSREARELASAVDGMELEDGEGTALFRATIGHRGVLVLRHRSKPLSDAISNTDPAYERRGRFSVALEKYEPFIKLSNPLVEDEAAVLAARMLNEFTLKAVEILDSHPVNLAREKRGLLKANAILSRDAGGLPEEKPPSFQERFGLRGASIVEMVVERGISRYIGLDDIRVEIEGRAREEVYREEAARAVEALETHDLVYVHLKGPDEPGHDGSFEGKIRAVEDIDKHFFAPLLDRLSSAGLEPAFVVTSDHATPWDVGAHSGDPVPLMISHQSIQGSIGKFSETVCLRGRLGTIIGGYRIIPKTLSLLAGLEHHHHHH | not failed |
| MPQPTVLLLARADLSPVGTEFTTGPIDAHDPFDSGRRTAFVDEQGIAAGIVEFGTALSVEAYPYTEMLVMHRGSVTLTSGTDSVTLSTGESAVIGRGTQVRIDAQPESLWAFCASTQASGPDKSGITALDRLALLTPSSPPDPSIMISPLPQCRSNNLFEDTASTLRIGVWDSTPYERISRPHKIHELMNLIEGRVVLSLENGSSLTVNTGDTVFVAQGAPCKWTSTGYVRKFYAVT | not failed |
| MLNLSQNGCSVWVASSTEMVLTPTAVALGKFDGVHLGHQRVIQPVLQSTRSAQTWGDALDSSAQSANPPAAPQERIYSTVVTFRPHPQEFFTGQARTWLTPLDEKVQQLRSLGVDQLVLLPFDKELTALSPEEFVEKILVQQLRCQRISVGQDFCFGKQRRGTAKDLQLIAAKYHIPVSIVPLQTSDGQFLEDGNCGSFESLEDAPISTSLIRQALETGDIKTANRFLGRPYILIGVVVEGEQLGRTIGFPTANLELPKDKFVPRQGVYAVRVKILGESADANIPLEILGVMNIGNRPTVNGTYSSVEVYLLDWSGDLYGKELAVQLVDFLRPEQKFPSLEALKAQIQQDCTVARQILSREN | failed |
| VTRAIILAHGYATASSIANVANRLLKSQLFESFDMPLDVTPEAIANQVMAYIESHALASGLIILVDMGSLNAIHRHFNRRLSTPMAIINNVSTGMAMYVGERILQGVMLEDIVREIGDDLAVEHQLYYPQTDKP | failed |
